# Measurements taken from EP4725969A1 (Latticon (Suzhou) Biopharmaceuticals Co., Ltd., dated 2024).
# Target: T1, recombinant human HER2 extracellular domain protein (human, UniProt P04626 23-652)
# T1 construct: range 23-652; Range is printed for the immunogen/panning protein; also called ErbB2; recombinant HER2 protein
# Assay: BLI, Protein A capture
Kd [nM],koff [s⁻¹],kon [M⁻¹ s⁻¹],Binder
12.1,0.00121,100000,"Hu2117HK-Mu38 (Fc fusion, scFv-hIgG1 Fc; not shown: human IgG1 Fc) scFv: EVQLVESGGGLVQPGGSLRLSCAASGFTYNNYGMSWVRQAPGKGLEWVASISGGGSYTKYPDSVKGRFTISRDNSKNTLYLQMNSLRAEDTAVYYCARDYAGFFDVWGQGTLVTVSSGGGGSGGGGSGGGGSDIQMTQSPSSLSASVGDRVTITCRSSQSLVHSNGNTYLHWYQQKPGKAPKLLIYKVSNRFSGVPSRFSGSGSGTDFTLTISSLQPEDFATYFCSQSTHVPYTFGQGTKVEIK"
12.3,0.0012,97700,"Hu2117HK-Mu39 (Fc fusion, scFv-hIgG1 Fc; not shown: human IgG1 Fc) scFv: EVQLVESGGGLVQPGGSLRLSCAASGFTYSNYGMSWVRQAPGKGLEWVASISGGGSYTKYPDSVKGRFTISRDNSKNTLYLQMNSLRAEDTAVYYCARDYAGFFDVWGQGTLVTVSSGGGGSGGGGSGGGGSDIQMTQSPSSLSASVGDRVTITCRSSQSLVHSNGNTYLHWYQQKPGKAPKLLIYKVSNRFSGVPSRFSGSGSGTDFTLTISSLQPEDFATYFCSQSTHVPYTFGQGTKVEIK"
11.9,0.000867,72700,"Hu2117HK-Mu40 (Fc fusion, scFv-hIgG1 Fc; not shown: human IgG1 Fc) scFv: EVQLVESGGGLVQPGGSLRLSCAASGFTYSDYGMSWVRQAPGKGLEWVASISGGGSYTKYPDSVKGRFTISRDNSKNTLYLQMNSLRAEDTAVYYCARDYAGFFDVWGQGTLVTVSSGGGGSGGGGSGGGGSDIQMTQSPSSLSASVGDRVTITCRSSQSLVHSNGNTYLHWYQQKPGKAPKLLIYKVSNRFSGVPSRFSGSGSGTDFTLTISSLQPEDFATYFCSQSTHVPYTFGQGTKVEIK"
42.5,0.0034,80000,"Hu2117HK-Mu44 (Fc fusion, name in Kabat numbering, scFv-hIgG1 Fc; not shown: human IgG1 Fc) scFv: EVQLVESGGGLVQPGGSLRLSCAASGFTYSSYGMSWVRQAPGKGLEWVASISGGGSYTKYPDSVKGRFTISRDNSKNTLYLQMNSLRAEDTAVYYCARDYEGFFDVWGQGTLVTVSSGGGGSGGGGSGGGGSDIQMTQSPSSLSASVGDRVTITCRSSQSLVHSNGNTYLHWYQQKPGKAPKLLIYKVSNRFSGVPSRFSGSGSGTDFTLTISSLQPEDFATYFCSQSTHVPYTFGQGTKVEIK"
9.66,0.000603,62400,"Hu2117HK-Mu41 (Fc fusion, scFv-hIgG1 Fc; not shown: human IgG1 Fc) scFv: EVQLVESGGGLVQPGGSLRLSCAASGFTYSSYGMSWVRQAPGKGLEWVASISGGGNYAKYPDSVKGRFTISRDNSKNTLYLQMNSLRAEDTAVYYCARDYAGFFDVWGQGTLVTVSSGGGGSGGGGSGGGGSDIQMTQSPSSLSASVGDRVTITCRSSQSLVHSNGNTYLHWYQQKPGKAPKLLIYKVSNRFSGVPSRFSGSGSGTDFTLTISSLQPEDFATYFCSQSTHVPYTFGQGTKVEIK"
33.5,0.00178,53000,"Hu2117HK-Mu42 (Fc fusion, scFv-hIgG1 Fc; not shown: human IgG1 Fc) scFv: EVQLVESGGGLVQPGGSLRLSCAASGFTYSSYGMSWVRQAPGKGLEWVASISGSGSYTKYPDSVKGRFTISRDNSKNTLYLQMNSLRAEDTAVYYCARDYAGFFDVWGQGTLVTVSSGGGGSGGGGSGGGGSDIQMTQSPSSLSASVGDRVTITCRSSQSLVHSNGNTYLHWYQQKPGKAPKLLIYKVSNRFSGVPSRFSGSGSGTDFTLTISSLQPEDFATYFCSQSTHVPYTFGQGTKVEIK"
56.7,0.00406,71700,"Hu2117HK-Mu43 (Fc fusion, name in Kabat numbering, scFv-hIgG1 Fc; not shown: human IgG1 Fc) scFv: EVQLVESGGGLVQPGGSLRLSCAASGFTYSSYGMSWVRQAPGKGLEWVASISGGGSYTKYPDSVKGRFTISRDNSKNTLYLQMNSLRAEDTAVYYCARDYDGFFDVWGQGTLVTVSSGGGGSGGGGSGGGGSDIQMTQSPSSLSASVGDRVTITCRSSQSLVHSNGNTYLHWYQQKPGKAPKLLIYKVSNRFSGVPSRFSGSGSGTDFTLTISSLQPEDFATYFCSQSTHVPYTFGQGTKVEIK"
